Experimental data as given in publication PMC8635156, “Structural and Functional Analysis of SsaV Cytoplasmic Domain and Variable Linker States in the Context of the InvA-SsaV Chimeric Protein” (Microbiology Spectrum, 2021).

Columns and labels:
[1] = target: the molecule itself; experiment: SEC; gel filtration of purified cytoplasmic domains (Superdex 200 Increase 10/300 GL; 20 mM Tris-HCl pH 8.0, 150 mM NaCl); Fig. 1B at two salt concentrations (physiological and high salt); Fig. 4D wild type and variants
[2] = target: the molecule itself; experiment: cryo-EM structure; single particle analysis of the GDN-solubilised chimera ISS (~10 mg/ml); C9 symmetry, 2.11 Å for the SsaVC part; TM and linker regions hardly visible

Protein | stoichiometry N [1] | stoichiometry N [2]
SsaV cytoplasmic domain (SsaVC), residues 346-682 (domain or fragment, SsaV (SctV of the SPI-2 T3SS), Salmonella enterica serovar Typhimurium, residues 346-682 (cytoplasmic domain with the last residues of the linker); The His6 tag is thrombin-cleavable (pET15b); the purification as described names no cleavage step; also called SctVC of SPI-2; source: E. coli BL21, purified (Ni-NTA, Hitrap Q anion exchange, SEC)) MVPGACPLILRLSPTLHSADLIRDIDAMRWFLFEDTGVPLPEVNIEVLPEPTEKLTVLLYQEPVFSLSIPAQADYLLIGADASVVGDSQTLPNGMGQICWLTKDMAHKAQGFGLDVFAGSQRISALLKCVLLRHMGEFIGVQETRYLMNAMEKNYSELVKELQRQLPINKIAETLQRLVSERVSIRDLRLIFGTLIDWAPREKDVLMLTEYVRIALRRHILRRLNPEGKPLPILRIGEGIENLVRESIRQTAMGTYTALSSRHKTQILQLIEQALKQSAKLFIVTSVDTRRFLRKITEATLFDVPILSWQELGEESLIQVVESIDLSEEELADNEE | 9 | –
InvATM-SsaVL-SsaVC chimeric full-length protein (ISS) (other, InvA, Salmonella enterica serovar Typhimurium, transmembrane region: what is left when residues 316-685 are replaced (residues 1-315); SsaV, Salmonella enterica serovar Typhimurium, residues 326-682 (linker SsaVL and cytoplasmic domain SsaVC); Eluted from the Strep-Tactin beads after the SUMO tag was cleaved on the beads; also called InvATM-SsaVC chimera; chimeric ISS; source: E. coli BL21, …) MLLSLLNSARLRPELLILVLMVMIISMFVIPLPTYLVDFLIALNIVLAILVFMGSFYIDRILSFSTFPAVLLITTLFRLALSISTSRLILIEADAGEIIATFGQFVIGDSLAVGFVVFSIVTVVQFIVITKGSERVAEVAARFSLDGMPGKQMSIDADLKAGIIDADAARERRSVLERESQLYGSFDGAMKFIKGDAIAGIIIIFVNFIGGISVGMTRHGMDLSSALSTYTMLTIGDGLVAQIPALLIAISAGFIVTRVNGDSDNMGRNIMTQLLNNPFVLVVTAILTISMGTLPGFPLPVFVILSVVLSVLFYFIRRKKSVVSANGVEAPEKDSMVPGACPLILRLSPTLHSADLIRDIDAMRWFLFEDTGVPLPEVNIEVLPEPTEKLTVLLYQEPVFSLSIPAQADYLLIGADASVVGDSQTLPNGMGQICWLTKDMAHKAQGFGLDVFAGSQRISALLKCVLLRHMGEFIGVQETRYLMNAMEKNYSELVKELQRQLPINKIAETLQRLVSERVSIRDLRLIFGTLIDWAPREKDVLMLTEYVRIALRRHILRRLNPEGKPLPILRIGEGIENLVRESIRQTAMGTYTALSSRHKTQILQLIEQALKQSAKLFIVTSVDTRRFLRKITEATLFDVPILSWQELGEESLIQVVESIDLSEEELADNEE | – | 9
